According to patent US5217867:

Legend:
[1] = test system: hGR G424 424 to Gly (Homo sapiens); assay: pulldown; conditions: relative to hGR-SB
[2] = test system: hGR-SB (human glucocorticoid receptor, wild-type equivalent) (Homo sapiens); assay: pulldown; conditions: immunoprecipitation DNA binding, reference
[3] = test system: hGR G471 471 to Gly (Homo sapiens); assay: pulldown; conditions: relative to hGR-SB
[4] = test system: hGR G479 479 to Gly (Homo sapiens); assay: pulldown; conditions: relative to hGR-SB
[5] = test system: hGR G480 480 to Gly (Homo sapiens); assay: pulldown; conditions: relative to hGR-SB
[6] = test system: hGR G444 444 to Gly (Homo sapiens); assay: pulldown; conditions: relative to hGR-SB
[7] = test system: hGR G447 447 to Gly (Homo sapiens); assay: pulldown; conditions: relative to hGR-SB
[8] = test system: hGR G457 457 to Gly (Homo sapiens); assay: pulldown; conditions: relative to hGR-SB
[9] = test system: hGR G481 481 to Gly (Homo sapiens); assay: pulldown; conditions: relative to hGR-SB
[10] = test system: hGR G476 476 to Gly (Homo sapiens); assay: pulldown; conditions: relative to hGR-SB
[11] = test system: hGR G446 446 to Gly (Homo sapiens); assay: pulldown; conditions: relative to hGR-SB; may be unstable in vitro
[12] = test system: hGR delta420-451 deletion between residues 420 and 451 (printed positions are the non-deleted junction residues) (Homo sapiens); assay: pulldown; conditions: relative to hGR-SB
[13] = test system: hGR G450 450 to Gly (Homo sapiens); assay: pulldown; conditions: relative to hGR-SB
[14] = test system: hGR G442 K442G (Homo sapiens); assay: pulldown; conditions: relative to hGR-SB; binds but transcriptionally inactive
[15] = test system: hGR G437 437 to Gly (Homo sapiens); assay: pulldown; conditions: relative to hGR-SB
[16] = test system: hGR G433 433 to Gly (Homo sapiens); assay: pulldown; conditions: relative to hGR-SB
[17] = test system: hGR G432 432 to Gly (Homo sapiens); assay: pulldown; conditions: relative to hGR-SB
[18] = test system: hGR G445 445 to Gly (Homo sapiens); assay: pulldown; conditions: relative to hGR-SB
[19] = test system: hGR G460 460 to Gly (Homo sapiens); assay: pulldown; conditions: relative to hGR-SB
[20] = test system: hGR G465 465 to Gly (Homo sapiens); assay: pulldown; conditions: relative to hGR-SB
[21] = test system: hGR G463 463 to Gly (Homo sapiens); assay: pulldown; conditions: relative to hGR-SB
[22] = test system: hGR G462 462 to Gly (Homo sapiens); assay: pulldown; conditions: relative to hGR-SB
[23] = test system: hGR G423 423 to Gly (Homo sapiens); assay: pulldown; conditions: relative to hGR-SB
[24] = test system: hGR G470 470 to Gly (Homo sapiens); assay: pulldown; conditions: relative to hGR-SB
[25] = test system: hGR G473 473 to Gly (Homo sapiens); assay: pulldown; conditions: relative to hGR-SB
[26] = test system: hGR G486 486 to Gly (Homo sapiens); assay: pulldown; conditions: relative to hGR-SB; may be unstable in vitro (10% activity in cells)
[27] = test system: hGR G467 467 to Gly (Homo sapiens); assay: pulldown; conditions: relative to hGR-SB; may be unstable in vitro
[28] = test system: hGR G453 453 to Gly (Homo sapiens); assay: pulldown; conditions: relative to hGR-SB
[29] = test system: hGR G426 D426G (Homo sapiens); assay: pulldown; conditions: relative to hGR-SB
[30] = test system: hGR G441 441 to Gly (Homo sapiens); assay: pulldown; conditions: relative to hGR-SB
[31] = test system: hGR G477 477 to Gly (Homo sapiens); assay: pulldown; conditions: relative to hGR-SB
[32] = test system: hGR G421 421 to Gly (Homo sapiens); assay: pulldown; conditions: relative to hGR-SB
[33] = test system: hGR G438 438 to Gly (Homo sapiens); assay: pulldown; conditions: relative to hGR-SB
[34] = test system: hGR delta450-487 deletion between residues 450 and 487 (printed positions are the non-deleted junction residues) (Homo sapiens); assay: pulldown; conditions: relative to hGR-SB
[35] = test system: hGR G474 474 to Gly (Homo sapiens); assay: pulldown; conditions: relative to hGR-SB
[36] = test system: hGR G431 C431G (Homo sapiens); assay: pulldown; conditions: relative to hGR-SB
[37] = test system: hGR G455 455 to Gly (Homo sapiens); assay: pulldown; conditions: relative to hGR-SB; may be unstable in vitro
[38] = test system: rTRalpha-Bm+ (rat thyroid hormone receptor alpha) BamHI linker at amino acid 21 (Rattus norvegicus), P63059-2; assay: cell_activity; conditions: TRE-CAT, T3; which TRE (rGH or palindromic) not stated
[39] = target: G-gal-G (hGR with DNA binding domain replaced by GAL4 1-74) (Homo sapiens / Saccharomyces cerevisiae) (UniProt P04150+P04386); assay: cell_activity
[40] = target: GAL4 (Saccharomyces cerevisiae) (UniProt P04386); assay: cell_activity; conditions: CAT reporter
Chain of GAL4 (Saccharomyces cerevisiae) (P04386 whole entry, the tested form may be a part): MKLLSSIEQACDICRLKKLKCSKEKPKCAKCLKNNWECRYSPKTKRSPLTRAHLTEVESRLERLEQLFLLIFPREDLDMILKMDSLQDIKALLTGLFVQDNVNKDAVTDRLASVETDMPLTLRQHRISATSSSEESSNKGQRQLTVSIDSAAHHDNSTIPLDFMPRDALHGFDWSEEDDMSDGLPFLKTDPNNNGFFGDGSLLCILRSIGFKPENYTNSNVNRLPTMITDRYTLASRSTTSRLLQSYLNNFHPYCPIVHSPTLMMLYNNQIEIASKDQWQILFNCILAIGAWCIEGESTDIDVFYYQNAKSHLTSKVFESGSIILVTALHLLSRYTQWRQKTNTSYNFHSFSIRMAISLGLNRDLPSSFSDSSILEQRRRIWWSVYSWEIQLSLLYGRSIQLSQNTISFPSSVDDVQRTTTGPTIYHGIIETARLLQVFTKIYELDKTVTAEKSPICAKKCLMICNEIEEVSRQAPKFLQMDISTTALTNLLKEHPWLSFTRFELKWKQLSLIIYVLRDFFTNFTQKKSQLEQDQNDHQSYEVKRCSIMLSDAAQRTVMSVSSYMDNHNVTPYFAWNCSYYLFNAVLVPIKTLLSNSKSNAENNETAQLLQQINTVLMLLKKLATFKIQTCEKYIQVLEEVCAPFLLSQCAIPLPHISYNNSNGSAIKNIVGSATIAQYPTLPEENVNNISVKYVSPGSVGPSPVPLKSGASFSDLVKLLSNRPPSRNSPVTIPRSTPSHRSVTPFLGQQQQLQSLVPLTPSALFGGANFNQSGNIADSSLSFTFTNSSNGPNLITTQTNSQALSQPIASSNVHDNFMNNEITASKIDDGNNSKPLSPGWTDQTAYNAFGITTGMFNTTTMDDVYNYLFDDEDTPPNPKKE

Chain of G-gal-G (hGR with DNA binding domain replaced by GAL4 1-74) (Homo sapiens / Saccharomyces cerevisiae) (P04150 other isoform, or with tags, fused parts or gaps, chain 1 of 2): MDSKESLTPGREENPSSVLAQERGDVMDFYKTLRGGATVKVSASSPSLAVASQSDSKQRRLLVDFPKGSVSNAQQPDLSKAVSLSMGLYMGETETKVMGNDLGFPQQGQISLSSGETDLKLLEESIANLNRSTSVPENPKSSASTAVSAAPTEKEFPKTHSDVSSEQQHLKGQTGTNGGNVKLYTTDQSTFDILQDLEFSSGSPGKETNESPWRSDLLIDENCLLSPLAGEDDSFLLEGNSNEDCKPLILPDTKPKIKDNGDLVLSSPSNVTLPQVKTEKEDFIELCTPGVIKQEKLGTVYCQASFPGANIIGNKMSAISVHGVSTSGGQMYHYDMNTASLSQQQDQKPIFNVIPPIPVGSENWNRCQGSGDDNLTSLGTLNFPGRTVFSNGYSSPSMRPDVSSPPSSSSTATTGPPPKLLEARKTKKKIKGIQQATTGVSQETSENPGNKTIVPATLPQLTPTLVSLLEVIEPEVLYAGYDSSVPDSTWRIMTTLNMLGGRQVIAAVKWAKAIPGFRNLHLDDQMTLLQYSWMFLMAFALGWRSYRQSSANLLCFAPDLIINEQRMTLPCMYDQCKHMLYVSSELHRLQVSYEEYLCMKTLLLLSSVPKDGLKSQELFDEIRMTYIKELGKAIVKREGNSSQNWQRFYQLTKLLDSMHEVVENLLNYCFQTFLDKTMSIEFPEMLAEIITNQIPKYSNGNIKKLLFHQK
Chain of G-gal-G (hGR with DNA binding domain replaced by GAL4 1-74) (Homo sapiens / Saccharomyces cerevisiae) (P04386 1-74, chain 2 of 2): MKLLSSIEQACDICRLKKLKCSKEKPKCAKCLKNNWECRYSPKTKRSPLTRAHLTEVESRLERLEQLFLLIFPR
Chain of rTRalpha-Bm+ (rat thyroid hormone receptor alpha) BamHI linker at amino acid 21 (Rattus norvegicus), P63059-2 (P63059 whole entry, looked up, the tested form may be a part): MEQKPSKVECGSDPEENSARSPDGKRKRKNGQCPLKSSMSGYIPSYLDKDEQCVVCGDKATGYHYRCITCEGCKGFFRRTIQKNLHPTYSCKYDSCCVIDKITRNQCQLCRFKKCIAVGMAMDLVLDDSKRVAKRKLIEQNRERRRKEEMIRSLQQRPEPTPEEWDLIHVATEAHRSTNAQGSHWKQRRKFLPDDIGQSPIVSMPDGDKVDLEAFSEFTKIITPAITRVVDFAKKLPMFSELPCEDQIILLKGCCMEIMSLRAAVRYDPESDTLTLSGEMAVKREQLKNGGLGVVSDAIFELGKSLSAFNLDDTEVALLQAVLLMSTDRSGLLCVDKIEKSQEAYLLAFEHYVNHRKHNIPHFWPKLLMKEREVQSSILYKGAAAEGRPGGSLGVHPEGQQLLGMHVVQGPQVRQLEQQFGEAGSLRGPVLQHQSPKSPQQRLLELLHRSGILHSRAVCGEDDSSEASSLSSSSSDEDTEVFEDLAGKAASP

Question: What does the source list for GRE-containing DNA fragment?
Answer: binding signal [1]: 1%; binding signal [2]: 100%; binding signal [3]: 6%; binding signal [4]: 40%; binding signal [5]: 50%; binding signal [6]: 1%; binding signal [7]: 2%; binding signal [8]: 2%; binding signal [9]: 3%; binding signal [10]: < 1%; binding signal [11]: 6%; binding signal [12]: 1%; binding signal [13]: 50%; binding signal [14]: 60%; binding signal [15]: 8%; binding signal [16]: 1%; binding signal [17]: 30%; binding signal [18]: < 1%; binding signal [19]: 90%; binding signal [20]: 1%; binding signal [21]: 1%; binding signal [22]: 40%; binding signal [23]: < 1%; binding signal [24]: 4%; binding signal [25]: < 1%; binding signal [26]: 1%; binding signal [27]: 6%; binding signal [28]: 60%; binding signal [29]: 75%; binding signal [30]: < 1%; binding signal [31]: 1%; binding signal [32]: < 1%; binding signal [33]: < 1%; binding signal [34]: 1%; binding signal [35]: 95%; binding signal [36]: 10%; binding signal [37]: 6%

Question: With “TCAGGTCATGACCTGA (double strand) [TRE of TRE-CAT reporter (palindromic TRE)]” as the substance, how does the activity [38] read?
Answer: Its activity is 100%.

Question: “deltaMTV-CAT promoter (no GAL4 site, GREs deleted)” was tested. Which activity ([39]; relative to deltaMTV-GAL-CAT, possible cryptic site) did it give?
Answer: Its activity is 5%.

Question: Which activity ([39]; with hormone) does the source give for “deltaMTV-GAL-CAT promoter with synthetic GAL4 site 17MX” here?
Answer: Its activity is 500 fold.

Question: What about the activity [40] of the same substance?
Answer: The activity was 20 fold.
